Test [1] addresses T1, human plasma kallikrein (human, UniProt P03952 20-390; P03952 391-638). In words: cell-based or functional assay.
For test [2], the target named is T1, human plasma kallikrein. Nature of the test: cell-based or functional assay. The source holds these as a separate data set.
Test [3] addresses T1, human plasma kallikrein. In words: SPR, 37° C.; reference: human prekallikrein. A general note: SPR reads the build-up and loss of mass on a sensor chip optically.
The target in test [4] is T1, human plasma kallikrein. Nature of the test: cell-based or functional assay. The source holds these as a separate data set.
Test [5] concerns the target rat plasma kallikrein (rat, UniProt P14272 20-638, limits assumed). In words: cell-based or functional assay.
The target in test [6] is rabbit plasma kallikrein (rabbit). Nature of the test: cell-based or functional assay.
Chain of rabbit plasma kallikrein (rabbit) (chain, as listed by the source limits assumed): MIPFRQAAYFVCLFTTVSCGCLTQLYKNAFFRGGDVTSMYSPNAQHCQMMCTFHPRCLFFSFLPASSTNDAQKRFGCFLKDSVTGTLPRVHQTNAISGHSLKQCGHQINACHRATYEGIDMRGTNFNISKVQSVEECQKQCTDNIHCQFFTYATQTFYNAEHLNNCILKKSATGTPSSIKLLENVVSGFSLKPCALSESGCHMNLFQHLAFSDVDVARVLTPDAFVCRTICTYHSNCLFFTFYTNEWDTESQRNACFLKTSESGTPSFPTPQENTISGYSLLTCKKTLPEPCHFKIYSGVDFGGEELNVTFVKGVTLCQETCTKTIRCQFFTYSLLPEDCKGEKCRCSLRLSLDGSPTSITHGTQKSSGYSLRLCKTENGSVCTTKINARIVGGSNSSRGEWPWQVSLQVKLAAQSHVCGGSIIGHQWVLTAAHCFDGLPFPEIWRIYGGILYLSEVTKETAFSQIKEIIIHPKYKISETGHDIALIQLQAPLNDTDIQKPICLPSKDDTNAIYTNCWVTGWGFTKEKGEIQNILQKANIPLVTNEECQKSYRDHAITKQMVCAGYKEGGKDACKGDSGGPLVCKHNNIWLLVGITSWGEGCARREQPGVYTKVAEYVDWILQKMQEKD
Test [7] addresses T1, human plasma kallikrein. In words: cell-based or functional assay. This is another data set of the same source.
In test [8] the target is cynomolgus monkey plasma kallikrein (cynomolgus monkey, UniProt P03952 20-638 (human entry), limits assumed). Nature of the test: cell-based or functional assay.
Chain of cynomolgus monkey plasma kallikrein (P03952 other isoform, or with tags, fused parts or gaps limits assumed): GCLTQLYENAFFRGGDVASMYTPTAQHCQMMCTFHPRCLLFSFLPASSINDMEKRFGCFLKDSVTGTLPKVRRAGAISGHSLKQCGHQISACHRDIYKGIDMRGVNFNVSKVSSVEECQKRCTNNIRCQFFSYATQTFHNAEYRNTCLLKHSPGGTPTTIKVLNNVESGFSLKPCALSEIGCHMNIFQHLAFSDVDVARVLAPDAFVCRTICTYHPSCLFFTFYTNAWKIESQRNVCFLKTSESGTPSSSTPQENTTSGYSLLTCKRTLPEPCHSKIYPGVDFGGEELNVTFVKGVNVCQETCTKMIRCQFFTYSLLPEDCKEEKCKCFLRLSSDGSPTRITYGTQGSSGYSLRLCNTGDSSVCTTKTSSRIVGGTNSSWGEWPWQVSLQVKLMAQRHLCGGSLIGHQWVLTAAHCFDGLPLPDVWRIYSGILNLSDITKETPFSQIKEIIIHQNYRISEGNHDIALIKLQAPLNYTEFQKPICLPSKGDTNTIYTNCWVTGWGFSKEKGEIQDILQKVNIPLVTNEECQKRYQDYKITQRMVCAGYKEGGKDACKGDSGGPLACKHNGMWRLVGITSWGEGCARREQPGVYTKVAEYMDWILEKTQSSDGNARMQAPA
Test [9] addresses T1, human plasma kallikrein. Nature of the test: SPR, pH 6.0, 37° C.; pH 6.0, 37° C.
Test [10] addresses T1, human plasma kallikrein. Nature of the test: SPR, pH 7.4, 37° C.
The target of test [11] is T1, human plasma kallikrein. Nature of the test: cell-based or functional assay. The source holds these as a separate data set.
The target of test [12] is T2, human prekallikrein (human, UniProt P03952 20-638).
T2 construct: Zymogen form
T2 sequence (P03952 20-638 limits assumed): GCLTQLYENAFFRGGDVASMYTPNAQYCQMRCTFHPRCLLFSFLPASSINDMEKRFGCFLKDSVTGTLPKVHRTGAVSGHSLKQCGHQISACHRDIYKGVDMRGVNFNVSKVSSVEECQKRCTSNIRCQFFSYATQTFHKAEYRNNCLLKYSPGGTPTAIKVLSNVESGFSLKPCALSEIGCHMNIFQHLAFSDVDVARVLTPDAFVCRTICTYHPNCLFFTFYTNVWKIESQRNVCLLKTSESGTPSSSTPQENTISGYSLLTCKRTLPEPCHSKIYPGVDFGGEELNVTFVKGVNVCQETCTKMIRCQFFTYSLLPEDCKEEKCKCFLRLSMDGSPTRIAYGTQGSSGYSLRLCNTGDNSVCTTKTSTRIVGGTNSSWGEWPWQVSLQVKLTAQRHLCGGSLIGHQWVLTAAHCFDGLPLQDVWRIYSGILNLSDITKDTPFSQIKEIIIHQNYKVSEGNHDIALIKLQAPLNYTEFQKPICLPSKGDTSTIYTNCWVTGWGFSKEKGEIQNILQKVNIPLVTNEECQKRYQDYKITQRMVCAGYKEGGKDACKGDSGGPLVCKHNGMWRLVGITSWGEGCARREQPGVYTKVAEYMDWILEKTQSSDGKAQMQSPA
Nature of the test: SPR, 37 C, 50 mM HEPES, 150 mM NaCl, 0.1 mM Ca++, 1 mg/ml BSA, 0.02% tween-20, pH 6.0.

The target in test [13] is T1, human plasma kallikrein. The description is as above.
The target in test [14] is T3, human FcRn (Sino Biological, Cat. No. CT009-H08H) (human, UniProt P55899 24-297; P61769 21-119).
T3 construct: Coupled to the Biacore chip; also called hFcRn
T3 sequence (P55899 24-297 limits assumed, chain 1 of 2): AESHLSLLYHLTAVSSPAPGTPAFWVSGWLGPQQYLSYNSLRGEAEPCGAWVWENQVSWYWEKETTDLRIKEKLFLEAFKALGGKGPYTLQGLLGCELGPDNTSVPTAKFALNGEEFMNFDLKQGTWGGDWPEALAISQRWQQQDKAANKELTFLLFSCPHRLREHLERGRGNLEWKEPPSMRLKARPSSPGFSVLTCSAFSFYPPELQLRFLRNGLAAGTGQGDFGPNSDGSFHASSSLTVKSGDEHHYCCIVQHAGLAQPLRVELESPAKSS
T3 sequence (P61769 21-119 limits assumed, chain 2 of 2): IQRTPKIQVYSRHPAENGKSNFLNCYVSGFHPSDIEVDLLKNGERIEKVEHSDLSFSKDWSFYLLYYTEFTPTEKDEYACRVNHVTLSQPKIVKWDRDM
In words: SPR, Biacore T200, human FcRn on the chip, pH 6.0.

Test [15] deals with T2, human prekallikrein. In words: SPR, 37 C, 50 mM HEPES, 150 mM NaCl, 1.3 mM Ca++, 1 mg/ml BSA, 0.02% tween-20, pH 7.4.
Test [16] has as its target T3, human FcRn (Sino Biological, Cat. No. …). Nature of the test: SPR, Biacore T200, human FcRn on the chip, pH 6.0; pH 6.0; hFcRn on the chip.
The target is the same in test [17].
Test [18] concerns the target T2, human prekallikrein. In words: SPR, 37 C, 50 mM HEPES, 150 mM NaCl, 0.1 mM Ca++, 1 mg/ml BSA, 0.02% tween-20, pH 6.0 (this table has no pH labels; lower row taken as pH 6.0 as in the labelled table beside it).
Test [19] concerns the target T1, human plasma kallikrein. In words: SPR, 37 C, 50 mM HEPES, 150 mM NaCl, 0.1 mM Ca++, 1 mg/ml BSA, 0.02% tween-20, pH 6.0 (this table has no pH labels; lower row taken as pH 6.0 as in the labelled tables beside it).
The target in test [20] is T2, human prekallikrein. In words: SPR, 37 C, 50 mM HEPES, 150 mM NaCl, 1.3 mM Ca++, 1 mg/ml BSA, 0.02% tween-20, pH 7.4 (this table has no pH labels; upper row taken as pH 7.4 as in the labelled table beside it).
The target in test [21] is T1, human plasma kallikrein. In words: SPR, pH 7.4, 37° C.; pH 7.4, 37° C.
Test [22] has as its target T1, human plasma kallikrein. In words: SPR, 37 C, 50 mM HEPES, 150 mM NaCl, 1.3 mM Ca++, 1 mg/ml BSA, 0.02% tween-20, pH 7.4 (this table has no pH labels; upper row taken as pH 7.4 as in the labelled tables beside it).
For test [23], the target named is T1, human plasma kallikrein. Nature of the test: SPR, 37° C., pH 6 against pH 7.4.
Test [24] addresses trypsin, human pancrease (Cat #16-19-032000, Athens Research and Technology Inc) (human). Nature of the test: cell-based or functional assay.
The target of test [25] is T1, human plasma kallikrein. Nature of the test: SPR, pH 6.0, 37° C.

Like-named read-outs stand apart in the source and are kept apart here.

The Kd is the constant that tells how readily two partners part at equilibrium. In general, koff refers to a measure of how fast the partners let go of each other. As a reminder, the kon is a measure of how fast the partners come together.

T1 sequence (P03952 20-390 S143N limits assumed, chain 1 of 2): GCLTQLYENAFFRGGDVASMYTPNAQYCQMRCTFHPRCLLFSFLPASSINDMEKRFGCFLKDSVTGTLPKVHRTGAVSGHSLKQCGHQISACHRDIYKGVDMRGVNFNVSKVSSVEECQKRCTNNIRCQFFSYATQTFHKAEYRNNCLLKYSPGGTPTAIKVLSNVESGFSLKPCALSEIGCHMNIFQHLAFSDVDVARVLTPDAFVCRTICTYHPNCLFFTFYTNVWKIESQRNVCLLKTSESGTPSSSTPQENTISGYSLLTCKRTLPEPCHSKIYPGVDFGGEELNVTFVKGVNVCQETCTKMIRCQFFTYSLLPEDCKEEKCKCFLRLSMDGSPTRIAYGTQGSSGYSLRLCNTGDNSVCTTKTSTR
T1 sequence (P03952 391-638 limits assumed, chain 2 of 2): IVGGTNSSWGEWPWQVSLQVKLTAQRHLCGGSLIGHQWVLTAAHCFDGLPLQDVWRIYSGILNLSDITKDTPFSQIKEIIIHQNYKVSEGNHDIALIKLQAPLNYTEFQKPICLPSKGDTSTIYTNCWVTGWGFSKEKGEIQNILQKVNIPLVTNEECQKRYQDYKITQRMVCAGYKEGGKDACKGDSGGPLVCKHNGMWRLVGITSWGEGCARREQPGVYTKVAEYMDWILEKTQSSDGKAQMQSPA
Chain of rat plasma kallikrein (P14272 20-638 limits assumed): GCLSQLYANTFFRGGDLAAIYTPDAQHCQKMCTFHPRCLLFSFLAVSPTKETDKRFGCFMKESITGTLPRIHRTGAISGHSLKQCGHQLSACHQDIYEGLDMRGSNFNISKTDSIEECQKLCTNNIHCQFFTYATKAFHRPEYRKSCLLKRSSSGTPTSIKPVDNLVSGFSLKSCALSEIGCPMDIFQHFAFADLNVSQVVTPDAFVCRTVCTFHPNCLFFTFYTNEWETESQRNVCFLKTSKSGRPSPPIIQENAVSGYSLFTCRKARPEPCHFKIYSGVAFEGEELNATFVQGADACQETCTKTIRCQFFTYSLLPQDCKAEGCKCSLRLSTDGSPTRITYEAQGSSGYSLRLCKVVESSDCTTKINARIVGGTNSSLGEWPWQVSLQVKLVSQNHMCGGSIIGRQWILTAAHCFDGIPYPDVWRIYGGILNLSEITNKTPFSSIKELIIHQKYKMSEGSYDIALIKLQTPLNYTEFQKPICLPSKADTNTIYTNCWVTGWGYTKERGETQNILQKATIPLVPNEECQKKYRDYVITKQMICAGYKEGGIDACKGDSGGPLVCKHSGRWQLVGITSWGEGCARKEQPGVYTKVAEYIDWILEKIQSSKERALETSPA

B1: MAb1 (antibody, V domains shown)
VH: QVQLQQSGAELVKPGASVKISCKASGYAFSSYWMNWVKQRPGEGLEWIGQIYPGDDDTNYNGKFKGKATLTVDKSSTTAYMQLSSLTSEDSAVYFCAGSLMVTTGAPFDYWGQGTTLTVSS
VL: DIVMTQSHKFMSTSVGDRVSITCKASQDVGIAVAWYQQKPGQSPKFLIYWASTRHTGVPDRFTGSGSGTDFTLTIRNVQSEDLSDYFCQQYRSYPLTFGSGTKLELK
For the molecule B1, in [1], the “IC50 (read off the curve), lower panel, 10 nM pKal” value was roughly 8e-09 M and the “IC50 (read off the curve), upper panel, 1 nM pKal” value is roughly 1e-09 M. Besides, the “IC50 (read off the curve)” value in test [2] is roughly 1 nM.

B2: MAb4-YTE (antibody, human IgG1, kappa)
heavy: QVQLVQSGAEVKKPGSSVKVSCKASGYAFSSYWMNWVRQAPGQGLEWIGQIYPGDDDTNYNAKFQGRVTITVDKSTTTAYMELSSLRSEDTAVYFCAGSLMVTTGAPFDYWGQGTTVTVSSASTKGPSVFPLAPSSKSTSGGTAALGCLVKDYFPEPVTVSWNSGALTSGVHTFPAVLQSSGLYSLSSVVTVPSSSLGTQTYICNVNHKPSNTKVDKRVEPKSCDKTHTCPPCPAPELLGGPSVFLFPPKPKDTLYITREPEVTCVVVDVSHEDPEVKFNWYVDGVEVHNAKTKPREEQYNSTYRVVSVLTVLHQDWLNGKEYKCKVSNKALPAPIEKTISKAKGQPREPQVYTLPPSREEMTKNQVSLTCLVKGFYPSDIAVEWESNGQPENNYKTTPPVLDSDGSFFLYSKLTVDKSRWQQGNVFSCSVMHEALHNHYTQKSLSLSPG
light: DIQMTQSPSSLSASVGDRVTITCKASQDVGIAVAWYQQKPGKAPKFLIYYASHRGWGVPDRFSGSGSGTDFTLTISSLQPEDFATYFCQQYRSYPLTFGQGTKLEIKRTVAAPSVFIFPPSDEQLKSGTASVVCLLNNFYPREAKVQWKVDNALQSGNSQESVTEQDSKDSTYSLSSTLTLSKADYEKHKVYACEVTHQGLSSPVTKSFNRGEC
notes: also called Mab-YTE
With B2, the “fold higher affinity for plasma kallikrein than prekallikrein” value (“fold higher affinity” for short) in [3] is greater than 1000 fold. Besides, the “fold higher potency than DX-2930, HMWK functional assay” value in test [4] is roughly 10 fold. In addition, the “IC50, inhibition of pKal (1 nM) enzymatic activity on PFR-AMC” value in test [5] was 167 pM; in test [6], 352 pM; in test [7], 290 pM; in [8], 223 pM. Further, the Kd in test [9] amounted to 0.9 nM; in test [10] it was 1.1 nM; in [12] it was 670 nM; in [14], 150 nM; in test [15], 1300 nM. Also, the koff was determined as 7.3e-05 s⁻¹ in [10]; 0.022 s⁻¹ in [12]; 7.7e-05 s⁻¹ in test [13]; 0.0277 s⁻¹ in [14]; 0.025 s⁻¹ in [15]. Further, the kon is 69000 M⁻¹ s⁻¹ in test [10]; 34000 M⁻¹ s⁻¹ in test [12]; 86000 M⁻¹ s⁻¹ in [13]; 184000 M⁻¹ s⁻¹ in [14]; 19000 M⁻¹ s⁻¹ in test [15]. In addition, the “IC50 (read off the curve), lower panel” value in test [11] is roughly 20 nM. Also, the “IC50 (read off the curve), upper panel, 30 nM pKal, 600 nM HMWK” value in [11] is roughly 20 nM.

B3: MAb4 (antibody, human IgG1, kappa)
heavy: not shown
light: B2 light
notes: Full length human IgG1 kappa; also called unmodified MAb4; parental MAb4
In [16], B3 came in with a Kd of 848 nM, a dissociation rate constant (koff) of 0.229 s⁻¹ and a kon of 270000 M⁻¹ s⁻¹. For the same molecule, the “IC50 (read off the curve), lower panel” value in test [11] was roughly 20 nM.

B4: MAb4-LS (antibody, human IgG1, kappa)
heavy: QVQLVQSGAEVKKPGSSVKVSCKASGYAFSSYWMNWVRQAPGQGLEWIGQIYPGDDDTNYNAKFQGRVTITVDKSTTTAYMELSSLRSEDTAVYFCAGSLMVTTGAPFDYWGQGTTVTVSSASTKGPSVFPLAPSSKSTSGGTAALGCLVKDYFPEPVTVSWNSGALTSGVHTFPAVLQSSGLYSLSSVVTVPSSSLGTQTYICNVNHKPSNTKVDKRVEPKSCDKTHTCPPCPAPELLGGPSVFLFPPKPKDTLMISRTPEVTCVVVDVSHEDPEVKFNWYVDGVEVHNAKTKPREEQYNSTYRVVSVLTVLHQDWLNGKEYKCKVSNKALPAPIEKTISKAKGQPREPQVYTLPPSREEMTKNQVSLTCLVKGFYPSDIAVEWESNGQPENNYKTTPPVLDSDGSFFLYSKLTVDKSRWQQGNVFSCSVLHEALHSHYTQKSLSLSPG
light: B2 light
notes: Human IgG1 kappa
With B4, the “fold higher affinity” value in test [3] is greater than 1000 fold. The Kd in [17] was 105 nM; in test [18], 670 nM; in [9], 1.2 nM; in test [20] it was 1300 nM; in test [21], 2.2 nM. Further, the dissociation rate constant (koff) in test [17] amounted to 0.031 s⁻¹; in test [18], 0.023 s⁻¹; in test [19], 0.000101 s⁻¹; in test [20], 0.024 s⁻¹; in test [22] it was 8.6e-05 s⁻¹. Further, the kon in test [17] is 296000 M⁻¹ s⁻¹; in test [18] it was 34000 M⁻¹ s⁻¹; in test [19], 83000 M⁻¹ s⁻¹; in [20], 19000 M⁻¹ s⁻¹; in test [22], 39000 M⁻¹ s⁻¹. In addition, in test [11], the “IC50 (read off the curve), lower panel” value was roughly 20 nM.

B5: DX-2930 (antibody)
chain 1: not shown
chain 2: DIQMTQSPSTLSASVGDRVTITCRASQSISSWLAWYQQKPGKAPKLLIYKASTLESGVPSRFSGSGSGTEFTLTISSLQPDDFATYYCQQYNTYWTFGQGTKVEIKRTVAAPSVFIFPPSDEQLKSGTASVVCLLNNFYPREAKVQWKVDNALQSGNSQESVTEQDSKDSTYSLSSTLTLSKADYEKHKVYACEVTHQGLSSPVTKSFNRGEC
B5: in test [3], the “fold higher affinity” value was greater than 1000 fold. Moreover, the “fold reduction in KD at pH 6 versus pH 7.4” value in test [23] was greater than 10 fold. Besides, the “IC50 (read off the curve), lower panel, 10 nM pKal” value in test [1] was roughly 3e-09 M. For the same molecule, the “IC50, trypsin inhibition assay (0.25 nM trypsin, PFR-AMC), Data 1” value in [24] was found to be 243 nM. In addition, the “IC50, trypsin inhibition assay (0.25 nM trypsin, PFR-AMC), Data 2” value in test [24] came out at 376 nM. Also, the Kd is 18 nM in [10], 193 nM in test [14], 144000 nM in test [15] and 236 nM in test [25]. The koff is 0.00056 s⁻¹ in test [10], 0.0061 s⁻¹ in test [13], 0.167 s⁻¹ in [14] and 0.05 s⁻¹ in test [15]. For the same molecule, the kon in [10] worked out at 31000 M⁻¹ s⁻¹; in test [13] it was 26000 M⁻¹ s⁻¹; in test [14], 866000 M⁻¹ s⁻¹; in [15], 600 M⁻¹ s⁻¹. In addition, in [11], the “IC50 (read off the curve), lower panel” value was roughly 30 nM. Besides, in [2], the “IC50 (read off the curve)” value was roughly 0.2 nM.

(Values after patent US20240218079A1 (ASTRIA THERAPEUTICS, published 2024).)
